From US11230591 (Merck Sharp & Dohme, dated 2022)

Legend:
CMV virions = target: T1, CMV virions; assay: virion ELISA
T1 construct: also called whole virions

[1] = target: gB on infectious CMV (neutralization assays) (human cytomegalovirus); assay: cell-based or functional assay

B1: 3-25 (antibody, V domains shown)
VH: QVQLVESGGGVVQPGRSLRLSCAASGFTFSNHGLHWVRQPPGKGLEWVAVVSKDGTNEHYADSVRGRFTISRDNSKNTLYLLMKSLRLEDTAVYYCAREGYCGDDRCYSGQPDYWGQGILVTVSS
VL: EIVLTQFPATLSLSPGERATLSCRASQSVGRYLAWYQQKPGQAPRLLIYDSSNRATGVPARFSGSGSGTDFTLSISSLEPEDFAVYFCQQRSHWPPLTFGGGTKVEIK
notes: also called antibody 3-25; clone 3-25
Q: What does the source list for B1?
A: EC50 (CMV virions): 0.04 µg/mL; EC50 Neutralizing [1]: 0.3 µg/mL
